Biological target: StWRKY1 (Solanum tuberosum, UniProt Q9LEC7 1-172)
Assay: EMSA; shift inhibited by excess unlabelled competitor; poly(dI-dC); EMSA: 20 ul with kit binding buffer (LightShift), 1 ul each of 1 ug/ul poly(dI-dC), 50% glycerol, 1% NP-40, 1 M KCl, 100 mM MgCl2, 200 mM EDTA; 3 ug protein, 20 fmol probe; 25 C, 20 min; pH not stated
Details: protein: recombinant; label: 3' biotin; blunt

StWRKY1, sequence (Q9LEC7 entry or part of it): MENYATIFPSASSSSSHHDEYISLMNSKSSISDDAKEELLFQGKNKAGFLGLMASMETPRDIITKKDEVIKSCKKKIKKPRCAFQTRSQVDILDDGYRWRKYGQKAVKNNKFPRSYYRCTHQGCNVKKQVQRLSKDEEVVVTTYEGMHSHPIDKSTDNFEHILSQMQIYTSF

B1: THT promoter W1-box probe (dsDNA)
DNA 1: TCGTCAGAGTTGACCTCCACCAACCA
DNA 2: TGGTTGGTGGAGGTCAACTCTGACGA
- binding result: binds

Source: publication PMC4765800, “Transcription factor StWRKY1 regulates phenylpropanoid metabolites conferring late blight resistance in potato”
